Target: the molecule itself
Assay: crystal structure

B1: LnmK (Tyr62Phe) (enzyme, Streptomyces atroolivaceus S-140, UniProt Q8GGP1 2-319, looked up)
chain: SITSSLDVRPEIKQAVTVRPGMCGPGSLFVGQLGDWTWETVSAQCDTDVFAARDASGNPTFLAFYYFRVRGGRELHPGSLTFGDRLTVTSGCYDQGTESVLTLHRIDRAGSDDAQRPLDLHEFYERPRDGSLYVENFNRWVTRSAPGSNEDLVKSSPPGFRNDGLPQLPAAYSPRAVYREARTAHTFRALDEPGFRLLPDTVEVEHPVDIVRDVNGVGLLYFASYFSMVDKAALALWRRLGRSDRAFLRRVVVDQQMCYLGNADLDSVLTLGARVRVSTETPGEELVDVVISDRDSGRVIAVSTLHTQHDAHDPKGEA
B1: binds.

From PMC3567400 (Biochemistry, 2013)
